Test results taken from patent US20200317768A1 (published 2020).

How the values were obtained:
Assay in all cases: SPR (BIACORE); KD of SG1 / KD of variant;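 also: relative to parent M103205H795-SG1 carrying the SG1 human heavy chain constant region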
[1] = target: T1, human FcγRIIIaV extracellular domain with C-terminal His-tag (human, UniProt P08637 17-208)
T1 construct: also called human FcgRIIIaV

[2] = target: T2, cynomolgus monkey FcγRIIa3 extracellular domain with C-terminal His-tag (cynomolgus monkey)
T2 construct: also called cyno FcgRIIa3; cynoFcγRIIa3
T2 chain: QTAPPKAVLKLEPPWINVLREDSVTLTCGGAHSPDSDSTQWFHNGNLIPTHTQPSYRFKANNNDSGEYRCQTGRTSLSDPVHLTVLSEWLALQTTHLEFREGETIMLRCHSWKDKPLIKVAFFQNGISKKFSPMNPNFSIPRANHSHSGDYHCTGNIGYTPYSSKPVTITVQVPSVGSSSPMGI

[3] = target: T3, cynomolgus monkey FcγRIIa2 extracellular domain with C-terminal His-tag (cynomolgus monkey)
T3 construct: also called cyno FcgRIIa2; cynoFcγRIIa2
T3 chain: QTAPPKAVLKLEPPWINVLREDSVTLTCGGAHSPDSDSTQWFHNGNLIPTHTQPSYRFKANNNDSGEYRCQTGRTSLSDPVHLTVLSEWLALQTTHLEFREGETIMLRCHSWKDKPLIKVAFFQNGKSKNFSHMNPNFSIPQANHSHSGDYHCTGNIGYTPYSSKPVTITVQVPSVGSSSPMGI

[4] = target: T4, cynomolgus monkey FcγRIIa1 extracellular domain with C-terminal His-tag (cynomolgus monkey)
T4 construct: also called cyno FcgRIIa1; cynoFcγRIIa1
T4 chain: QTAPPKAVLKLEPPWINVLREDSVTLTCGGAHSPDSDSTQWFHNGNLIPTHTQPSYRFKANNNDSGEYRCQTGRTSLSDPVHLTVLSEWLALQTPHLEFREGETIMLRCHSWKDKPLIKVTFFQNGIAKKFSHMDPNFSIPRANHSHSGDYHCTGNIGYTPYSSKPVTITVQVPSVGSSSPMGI

[5] = target: T5, cynomolgus monkey FcγRIIb extracellular domain with C-terminal His-tag (cynomolgus monkey)
T5 construct: also called cyno FcgRIIb; cynoFcγRIIb
T5 chain: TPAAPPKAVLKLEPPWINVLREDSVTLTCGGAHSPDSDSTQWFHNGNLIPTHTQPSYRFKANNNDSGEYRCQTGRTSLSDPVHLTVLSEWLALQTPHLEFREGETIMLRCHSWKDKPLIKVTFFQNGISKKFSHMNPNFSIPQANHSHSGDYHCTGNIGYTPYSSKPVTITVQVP

[6] = target: T6, human FcγRIIaH extracellular domain with C-terminal His-tag (human, UniProt P12318 34-217)
T6 construct: also called human FcgRIIaH; FcγRIIa (type H)
T6 sequence: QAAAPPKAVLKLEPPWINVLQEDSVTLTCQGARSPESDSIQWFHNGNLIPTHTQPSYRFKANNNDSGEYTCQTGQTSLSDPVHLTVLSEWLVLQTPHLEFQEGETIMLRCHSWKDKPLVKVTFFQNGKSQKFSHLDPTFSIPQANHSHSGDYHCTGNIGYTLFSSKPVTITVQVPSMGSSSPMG

[7] = target: T7, human FcγRIIb extracellular domain with C-terminal His-tag (human, UniProt P31994 43-217)
T7 construct: also called human FcgRIIb
T7 sequence: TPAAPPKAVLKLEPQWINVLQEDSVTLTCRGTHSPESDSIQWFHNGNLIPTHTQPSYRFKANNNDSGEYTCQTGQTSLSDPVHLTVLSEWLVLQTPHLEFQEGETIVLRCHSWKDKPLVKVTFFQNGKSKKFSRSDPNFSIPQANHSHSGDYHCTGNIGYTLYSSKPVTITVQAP

[8] = target: T8, cynomolgus monkey FcγRIIIaS extracellular domain with C-terminal His-tag (cynomolgus monkey, UniProt Q8SPW2 21-206 at identity 1.00))
T8 construct: also called cyno FcgRIIIaS; cynoFcγRIIIaS
T8 chain: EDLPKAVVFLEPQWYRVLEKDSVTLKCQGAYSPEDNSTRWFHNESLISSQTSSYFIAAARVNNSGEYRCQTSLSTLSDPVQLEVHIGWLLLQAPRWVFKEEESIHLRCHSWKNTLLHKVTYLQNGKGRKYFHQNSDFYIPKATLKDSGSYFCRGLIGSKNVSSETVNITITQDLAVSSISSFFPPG

T1 sequence (P08637 17-208 F176V): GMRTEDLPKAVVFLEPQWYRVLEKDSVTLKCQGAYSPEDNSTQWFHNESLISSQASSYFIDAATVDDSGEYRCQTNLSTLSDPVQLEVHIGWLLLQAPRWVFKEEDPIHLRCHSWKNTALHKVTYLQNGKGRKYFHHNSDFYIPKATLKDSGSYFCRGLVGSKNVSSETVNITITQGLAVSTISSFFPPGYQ

Binder | KD fold (SG1 = 1) [1] | KD fold (SG1 = 1) [2] | KD fold (SG1 = 1) [3] | KD fold (SG1 = 1) [4] | KD fold (SG1 = 1) [5] | KD fold (SG1 = 1) [6] | KD fold (SG1 = 1) [7] | KD fold (SG1 = 1) [8]
M103205H795-MY389/M103202L889-SK1 (antibody, human IgG1, kappa, Substitutions introduced into M103205H795-SG1, expressed with M103202L889-SK1 as light chain; EU numbering) heavy: QVTLKESGPVLVKPTETLTLTCTVSGIDLSHDDISWVRQAPGKGLEWVGIISYAGSTYYASWAKGRLTISKDTSKNQVVLTMTNMDPVDTATYYCARGVPAYSHGGDLWGQGTLVTVSSASTKGPSVFPLAPSSKSTSGGTAALGCLVKDYFPEPVTVSWNSGALTSGVHTFPAVLQSSGLYSLSSVVTVPSSSLGTQTYICNVNHKPSNTKVDKKVEPKSCDKTHTCPPCPAPELLTGPLVFLFPPKPKDTLMISRTPEVTCVVVDVSDEDPEVKFNWYVDGVEVHNAKTKPREEQYNSTYRVVSVLTVLHQDWLNGKEYKCKVSNKALPKPIEKTISKAKGQPREPQVYTLPPSREEMTKNQVSLTCLVKGFYPSDIAVEWESNGQPENNYKTTPPVLDSDGSFFLYSKLTVDKSRWQQGNVFSCSVMHEALHNHYTQKSLSLSP light: DIVMTQSPATLSLSPGERATLSCTSSQSVYHANWLSWFQQKPGQPPKLLIYWASTLAYGVPSRFSGSGSGTDFTLTISSLQPEDAATYYCAGGYGGGRYAFGQGTKVEIKRTVAAPSVFIFPPSDEQLKSGTASVVCLLNNFYPREAKVQWKVDNALQSGNSQESVTEQDSKDSTYSLSSTLTLSKADYEKHKVYACEVTHQGLSSPVTKSFNRGEC | 0.23 fold | 12.1 fold | 3.2 fold | 1.6 fold | 2.6 fold | 2.6 fold | 4.2 fold | 0.24 fold
M103205H795-MY392/M103202L889-SK1 (antibody, human IgG1, kappa, Substitutions introduced into M103205H795-SG1, expressed with M103202L889-SK1 as light chain; EU numbering) heavy: QVTLKESGPVLVKPTETLTLTCTVSGIDLSHDDISWVRQAPGKGLEWVGIISYAGSTYYASWAKGRLTISKDTSKNQVVLTMTNMDPVDTATYYCARGVPAYSHGGDLWGQGTLVTVSSASTKGPSVFPLAPSSKSTSGGTAALGCLVKDYFPEPVTVSWNSGALTSGVHTFPAVLQSSGLYSLSSVVTVPSSSLGTQTYICNVNHKPSNTKVDKKVEPKSCDKTHTCPPCPAPELLTGPSVFLFPPKPKDTLMISRTPEVTCVVVDVSDEDPEVKFNWYVDGVEVHNAKTKPREEQYNLTYRVVSVLTVLHQDWLNGKEYKCKVSNKALPKPIEKTISKAKGQPREPQVYTLPPSREEMTKNQVSLTCLVKGFYPSDIAVEWESNGQPENNYKTTPPVLDSDGSFFLYSKLTVDKSRWQQGNVFSCSVMHEALHNHYTQKSLSLSP light: DIVMTQSPATLSLSPGERATLSCTSSQSVYHANWLSWFQQKPGQPPKLLIYWASTLAYGVPSRFSGSGSGTDFTLTISSLQPEDAATYYCAGGYGGGRYAFGQGTKVEIKRTVAAPSVFIFPPSDEQLKSGTASVVCLLNNFYPREAKVQWKVDNALQSGNSQESVTEQDSKDSTYSLSSTLTLSKADYEKHKVYACEVTHQGLSSPVTKSFNRGEC | 0.09 fold | 4.4 fold | 2.2 fold | 10.7 fold | 2.6 fold | 1.6 fold | 2.7 fold | 0.09 fold
M103205H795-MY515/M103202L889-SK1 (antibody, human IgG1, kappa, Substitutions introduced into M103205H795-SG1, expressed with M103202L889-SK1 as light chain; EU numbering) heavy: QVTLKESGPVLVKPTETLTLTCTVSGIDLSHDDISWVRQAPGKGLEWVGIISYAGSTYYASWAKGRLTISKDTSKNQVVLTMTNMDPVDTATYYCARGVPAYSHGGDLWGQGTLVTVSSASTKGPSVFPLAPSSKSTSGGTAALGCLVKDYFPEPVTVSWNSGALTSGVHTFPAVLQSSGLYSLSSVVTVPSSSLGTQTYICNVNHKPSNTKVDKKVEPKSCDKTHTCPPCPAPELLTGPSVFLFPPKPKDTLMISRTPEVTCVVVDVSDEDPEVKFNWYVDGVEVHNAKTKPREELYNLTYRVVSVLTVLHQDWLNGKEYKCKVSNKALPKPIEKTISKAKGQPREPQVYTLPPSREEMTKNQVSLTCLVKGFYPSDIAVEWESNGQPENNYKTTPPVLDSDGSFFLYSKLTVDKSRWQQGNVFSCSVMHEALHNHYTQKSLSLSP light: DIVMTQSPATLSLSPGERATLSCTSSQSVYHANWLSWFQQKPGQPPKLLIYWASTLAYGVPSRFSGSGSGTDFTLTISSLQPEDAATYYCAGGYGGGRYAFGQGTKVEIKRTVAAPSVFIFPPSDEQLKSGTASVVCLLNNFYPREAKVQWKVDNALQSGNSQESVTEQDSKDSTYSLSSTLTLSKADYEKHKVYACEVTHQGLSSPVTKSFNRGEC | 0.09 fold | 5.9 fold | 3.2 fold | 22.9 fold | 4.6 fold | 3.1 fold | 3.8 fold | 0.09 fold
M103205H795-MY514/M103202L889-SK1 (antibody, human IgG1, kappa, Substitutions introduced into M103205H795-SG1, expressed with M103202L889-SK1 as light chain; EU numbering) heavy: QVTLKESGPVLVKPTETLTLTCTVSGIDLSHDDISWVRQAPGKGLEWVGIISYAGSTYYASWAKGRLTISKDTSKNQVVLTMTNMDPVDTATYYCARGVPAYSHGGDLWGQGTLVTVSSASTKGPSVFPLAPSSKSTSGGTAALGCLVKDYFPEPVTVSWNSGALTSGVHTFPAVLQSSGLYSLSSVVTVPSSSLGTQTYICNVNHKPSNTKVDKKVEPKSCDKTHTCPPCPAPELLTGPVVFLFPPKPKDTLMISRTPEVTCVVVDVSDEDPEVKFNWYVDGVEVHNAKTKPREEQYNLTYRVVSVLTVLHQDWLNGKEYKCKVSNKALPKPIEKTISKAKGQPREPQVYTLPPSREEMTKNQVSLTCLVKGFYPSDIAVEWESNGQPENNYKTTPPVLDSDGSFFLYSKLTVDKSRWQQGNVFSCSVMHEALHNHYTQKSLSLSP light: DIVMTQSPATLSLSPGERATLSCTSSQSVYHANWLSWFQQKPGQPPKLLIYWASTLAYGVPSRFSGSGSGTDFTLTISSLQPEDAATYYCAGGYGGGRYAFGQGTKVEIKRTVAAPSVFIFPPSDEQLKSGTASVVCLLNNFYPREAKVQWKVDNALQSGNSQESVTEQDSKDSTYSLSSTLTLSKADYEKHKVYACEVTHQGLSSPVTKSFNRGEC | 0.08 fold | 11.3 fold | 3.2 fold | 12.3 fold | 2.4 fold | 2 fold | 6.7 fold | 0.08 fold
M103205H795-MY400/M103202L889-SK1 (antibody, human IgG1, kappa, Substitutions introduced into M103205H795-SG1, expressed with M103202L889-SK1 as light chain; EU numbering) heavy: QVTLKESGPVLVKPTETLTLTCTVSGIDLSHDDISWVRQAPGKGLEWVGIISYAGSTYYASWAKGRLTISKDTSKNQVVLTMTNMDPVDTATYYCARGVPAYSHGGDLWGQGTLVTVSSASTKGPSVFPLAPSSKSTSGGTAALGCLVKDYFPEPVTVSWNSGALTSGVHTFPAVLQSSGLYSLSSVVTVPSSSLGTQTYICNVNHKPSNTKVDKKVEPKSCDKTHTCPPCPAPELLTGPSVFLFPPKPKDTLMISRTPEVTCVVVDVSDEDPEVKFNWYVDGVEVHNAKTKPREEQYNSTYRVVSVLTVLHQDWLNGKEYKCKVSNKALPKEIEKTISKAKGQPREPQVYTLPPSREEMTKNQVSLTCLVKGFYPSDIAVEWESNGQPENNYKTTPPVLDSDGSFFLYSKLTVDKSRWQQGNVFSCSVMHEALHNHYTQKSLSLSP light: DIVMTQSPATLSLSPGERATLSCTSSQSVYHANWLSWFQQKPGQPPKLLIYWASTLAYGVPSRFSGSGSGTDFTLTISSLQPEDAATYYCAGGYGGGRYAFGQGTKVEIKRTVAAPSVFIFPPSDEQLKSGTASVVCLLNNFYPREAKVQWKVDNALQSGNSQESVTEQDSKDSTYSLSSTLTLSKADYEKHKVYACEVTHQGLSSPVTKSFNRGEC | 0.1 fold | 4.5 fold | 2.3 fold | 1.8 fold | 2.9 fold | 1.6 fold | 1.8 fold | 0.15 fold
